Laboratory results reported in article PMC9239266 (mBio, 2022).

B1: CopC ΔN50 (recombinant) (domain or fragment)
chain: AAGKIGAFLRKAVAAQSYGLMFANGKLFEATGDALEKRGQYGFSALQRLDGLSRRNLAAVEARLGALDSAERGLKERIMTGAWHFRHQSNAALDDGKTAAIASNHLLARESRSSGGNTFAGDKALLSNHDFVFFGVEFSGRGKQDKPLNHKHSTMDFGANAYVVPDTLPACRHGYLTLTDHFFNRVPGGREAEHQDFVGSFPQMGAETGRWIHEGKYRQNAPIFNYRDMKAAVALHLIEFLRDSKDAAFKAYVFDQAMQSGQALDRVLNSVFQAEFHIPRLMATTDYAKHPLRPMLLKEAVDSVNLPALSGLVSSKGDAVTAMWHAIDKGKDAVAAHLLGNWRFEAGDFASAPPGFYHELNYALSEHGASVYILDQFLSRGWAAVNAPFEHVNSGETMLDNAVKYGNREMAAALIKHGADRNLLSEWNGGKLDALLA
notes: also called CopC Δ50; source: E. coli BL21(DE3), purified (glutathione-Sepharose, GST removed by PreScission protease)
B2: caspase-7 p30 (C186A), ΔN23 (enzyme, human, UniProt P55210 24-303, looked up)
chain: AKPDRSSFVPSLFSKKKKNVTMRSIKTTRDRVPTYQYNMNFEKLGKCIIINNKNFDKVTGMGVRNGTDKDAEALFKCFRSLGFDVIVYNDCSCAKMQDLLKKASEEDHTNAACFACILLSHGEENVIYGKDGVTPIKDLTAHFRGDRCKTLLEKPKLFFIQAARGTELDDGIQADSGPINDTDANPRYKIPVEADFLFAYSTVPGYYSWRSPGRGSWFVQALCSILEEHGKDLEIMQILTRVNDRVARHFESQSDDPHFHEKKQIPCVVSMLTKELYFSQ
notes: also called CASP7 p30^C186A; caspase-7 p30 (C/A); source: E. coli BL21(DE3), purified (Ni-Sepharose)

Tests used:
[1] = biological target: T1, recombinant CaM (human, UniProt P0DP23 1-149); experiment: SEC; conditions: both partners purified
T1 construct: also called calmodulin; Ca^2+-free CaM

[2] = biological target: B1; experiment: SEC; conditions: both partners purified

Binder	binding result [1]	binding result [2]
B1	binds	
B2		binds
